One data set deals with bovine S100B (Sigma) (UniProt P02638).

Where “and” joins values, the source holds several entries; their conditions need not be identical. Identical values can stand only once.

bovine S100B (Sigma), sequence (P02638 2-92): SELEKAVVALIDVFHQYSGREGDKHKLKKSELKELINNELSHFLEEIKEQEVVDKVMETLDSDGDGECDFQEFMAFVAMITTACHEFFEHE
myc-tagged hMOB1, sequence (chain, as listed by the source): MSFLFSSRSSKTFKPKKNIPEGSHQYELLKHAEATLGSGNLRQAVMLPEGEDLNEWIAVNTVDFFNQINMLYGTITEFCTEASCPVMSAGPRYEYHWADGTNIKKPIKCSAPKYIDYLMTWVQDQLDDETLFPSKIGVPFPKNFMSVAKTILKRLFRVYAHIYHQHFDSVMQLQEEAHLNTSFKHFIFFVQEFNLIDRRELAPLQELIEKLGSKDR
GST-NDR2, sequence (chain, as listed by the source): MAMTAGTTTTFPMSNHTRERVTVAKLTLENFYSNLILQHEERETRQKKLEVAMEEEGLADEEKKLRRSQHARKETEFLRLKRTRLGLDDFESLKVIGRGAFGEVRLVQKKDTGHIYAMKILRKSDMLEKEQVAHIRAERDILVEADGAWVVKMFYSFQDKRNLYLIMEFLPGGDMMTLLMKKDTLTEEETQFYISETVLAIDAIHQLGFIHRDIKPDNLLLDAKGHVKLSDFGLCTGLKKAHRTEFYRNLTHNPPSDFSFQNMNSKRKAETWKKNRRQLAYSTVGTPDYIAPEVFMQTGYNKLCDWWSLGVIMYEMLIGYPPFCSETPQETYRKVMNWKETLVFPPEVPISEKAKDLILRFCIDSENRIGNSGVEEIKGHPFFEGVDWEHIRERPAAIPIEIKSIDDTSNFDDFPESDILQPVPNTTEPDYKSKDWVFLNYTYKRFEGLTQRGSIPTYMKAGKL

With GST-NDR1 S281A, in the data set with bovine S100B (Sigma), the autophosphorylation, incorporated 32P (Cerenkov counting), +S100B came to 0.028 and the specific activity, peptide kinase assay, after autophosphorylation +S100B is 0.952.
With GST-NDR1 T74A, in the data set with bovine S100B (Sigma), the “S100B-mediated increase of phosphorylation of Ser281 and Thr444 (immunoblot with phosphospecific antibodies)” value is “the T74A point mutation abolished the S100B-mediated increase of phosphorylation for both Ser281 and Thr444 residues without affecting the intrinsic NDR1 autophosphorylation”; the autophosphorylation, incorporated 32P (Cerenkov counting), +S100B was 0.207; the specific activity, peptide kinase assay, after autophosphorylation +S100B worked out at 7.82.
In the data set with bovine S100B (Sigma), GST-NDR1 T444A gave an autophosphorylation, incorporated 32P (Cerenkov counting), +S100B of 0.241 and a specific activity, peptide kinase assay, after autophosphorylation +S100B of 3.97.
For GST-NDR1 kinase dead (K118A), in that order: 0.0064 and 0.222.
Turning to GST-NDR1 wild type, in the data set with bovine S100B (Sigma), the autophosphorylation, incorporated 32P (Cerenkov counting), +S100B turned out to be 0.351; the increase in autophosphorylation entry is “an approximate 2-fold increase in autophosphorylation (on both Ser281 and Thr444)”; the “increase in kinase activity” value was “about a 5-fold increase in kinase activity”; the “phosphorylation on Ser281 and Thr444 (immunoblot with phosphospecific antibodies)” value was “Ca2+/S100B was found to enhance phosphorylation on both Ser281 and Thr444”. In the data set with bovine S100B (Sigma), the specific activity, peptide kinase assay, after autophosphorylation +S100B was 21.3.
For GST-NDR2, in the data set with bovine S100B (Sigma), the “rate of NDR2 autophosphorylation” value is “increases the rate of NDR2 autophosphorylation by ˜2-fold after 4 hours of incubation” and the “specific NDR activity” value was “stimulates the specific NDR activity in a concentration dependent manner up to ˜4-fold”.
Regarding HA-tagged NDR1 wild type, the “NDR autophosphorylation activity (32P, SDS PAGE, phosphoimager)” value in the data set on GST-hMOB1 is reported as “Addition of GST-hMOB1 to HA-NDR kinase reactions stimulated NDR autophosphorylation activity”. For the same substance, the OA stimulated NDR kinase activity (peptide kinase assay of 12CA5 immunoprecipitates) with myc-tagged hMOB1 is 2 fold and 3 fold.

The values are drawn from US20060172374.
